For 94 variants, protein stability index results are on record in the supplement of paper PMC10567573.

To fix the notation:
B1: ZNF8 (parent)
chain: RIHTGERPYMCKECGKAFSQNSSL
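Note: lentivirally expressed fusions sorted by FACS into six bins by GFP to DsRed ratio, PSI derived from sequencing read proportions per bin multiplied by bin number.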

In the series the parent is B1. In words: protein stability index of a GFP-peptide fusion (GPS, HEK-293T) (PSI 1-6); higher = more stable. The settings on record: c terminus: a fixed tail appended.
Take RIHTGERPYMCKTCGKAFSQNSSL [E13T]: the protein stability index amounted to 1.96. Turning to RIHTGERPYMCKMCGKAFSQNSSL [E13M], the protein stability index is 2.05. For the variant RIDTGERPYMCKECGKAFSQNSSL [H3D], the protein stability index amounted to 2.91. As for RIWTGERPYMCKECGKAFSQNSSL [H3W], the protein stability index came to 2.05. On to RIHTGERPYMCKECGKAFSQNSSN [L24N], for which the protein stability index worked out at 3.37. The figure for RIHTGERPYMCKECGKAFSQNSSM [L24M] is 2.7. Regarding RIHTGERPYMCKECGKAFSQNSSG [L24G], the protein stability index is 2.8.

Regarding RIHTGERPYMCKECGKAFSQNSST [L24T], the protein stability index was found to be 3.43. As for RIHTGERPYMCKECGKAFSQNSSK [L24K], the protein stability index was determined as 3.29. The figure for RIHTGERPYMCGECGKAFSQNSSL [K12G] is 2.38; for RIHTGERPYMCHECGKAFSQNSSL [K12H] it is 1.96; for RIHTGEQPYMCKECGKAFSQNSSL [R7Q] it is 3.2. As for RIHTGEFPYMCKECGKAFSQNSSL [R7F], the protein stability index is 2.99. On to RIHTGELPYMCKECGKAFSQNSSL [R7L], for which the protein stability index was determined as 2.65. The figure for RIHTGERPYMCKECGKAFWQNSSL [S19W] is 1.47; for RIHTGERPYMCKECGKAFDQNSSL [S19D] it is 3.09.

As to RIHTGERPYMCKECGKAFPQNSSL [S19P], the protein stability index amounted to 1.81. On to RIHTGERPYMCKECGKAFSQQSSL [N21Q], for which the protein stability index came out at 2.48. In the case of RIHTGERPYMCKECGKAFSQCSSL [N21C], the protein stability index came to 2.46. Turning to RIHTGERPYMCKECGKAFSQGSSL [N21G], the protein stability index was found to be 2.71. Take RIHTGERPYMCKECGKAFSQYSSL [N21Y]: the protein stability index came out at 1.5.

For the variant RIHTGERPYMCKECGKAFSQPSSL [N21P], the protein stability index was found to be 2.44. For the variant RIHTGERPYMCKECGKAFSQMSSL [N21M], the protein stability index was 2.17.

With RIHTGERPYMCKECGKAFSQNRSL [S22R], the protein stability index is 2.19.

For RIHTGERPYMCKECGKAFSQNKSL [S22K], the protein stability index is 2.4. RIHTGERPYMCKECGKAFSQNMSL [S22M]: the protein stability index came to 2.22.

In the case of RIHTDERPYMCKECGKAFSQNSSL [G5D], the protein stability index was determined as 2.64. RIHTPERPYMCKECGKAFSQNSSL [G5P]: the protein stability index was 3.02. Consider RIHTSERPYMCKECGKAFSQNSSL [G5S], for which the protein stability index was determined as 2.53. The same measure for RIHTTERPYMCKECGKAFSQNSSL [G5T]: 2.31; for RIHTVERPYMCKECGKAFSQNSSL [G5V]: 2.04. The same measure for RIHTWERPYMCKECGKAFSQNSSL [G5W]: 2.49; for RIHTFERPYMCKECGKAFSQNSSL [G5F]: 2.09; for RIHTHERPYMCKECGKAFSQNSSL [G5H]: 2.63. The figure for RIHTAERPYMCKECGKAFSQNSSL [G5A] is 2.98; for RIHTGERPYMCKECGKQFSQNSSL [A17Q] it is 3.01. Take RIHTGERPYMCKECGKVFSQNSSL [A17V]: the protein stability index was found to be 3.24.

As for RIHTGERPYMCKECGKYFSQNSSL [A17Y], the protein stability index worked out at 2.37. For the variant RIHTGERPYMCKECGKRFSQNSSL [A17R], the protein stability index stood at 3.04. The figure for RIHTGERPYMCKECGKAFSQNSDL [S23D] is 2.8; for RIHTGERPYMCKECGKAFSQNSVL [S23V] it is 2.24; for RIHTGERPYMCKECGKAFSQNSCL [S23C] it is 2.75. Take RIHTGERPYMCKECGKAFSQNSWL [S23W]: the protein stability index was found to be 1.94. As to RIHTGERPYMCKECGKAFSQNSFL [S23F], the protein stability index worked out at 1.77. For the variant RIHTGERPYMCKECGKAFSQNSPL [S23P], the protein stability index stood at 2.48. Turning to RIHGGERPYMCKECGKAFSQNSSL [T4G], the protein stability index stood at 2.19. Take RIHCGERPYMCKECGKAFSQNSSL [T4C]: the protein stability index amounted to 3.04. With RIHMGERPYMCKECGKAFSQNSSL [T4M], the protein stability index came to 1.88.

For the variant RIHHGERPYMCKECGKAFSQNSSL [T4H], the protein stability index stood at 2.43. As to RIHTGERPYMCKECGFAFSQNSSL [K16F], the protein stability index came out at 2.52. As to RIHTGERPYMCKECGPAFSQNSSL [K16P], the protein stability index came to 2.06. For the variant RIHTGGRPYMCKECGKAFSQNSSL [E6G], the protein stability index was found to be 1.5. In the case of RIHTGIRPYMCKECGKAFSQNSSL [E6I], the protein stability index is 1.68. In the case of RCHTGERPYMCKECGKAFSQNSSL [I2C], the protein stability index amounted to 2.85.

As to RFHTGERPYMCKECGKAFSQNSSL [I2F], the protein stability index turned out to be 2.5. On to RDHTGERPYMCKECGKAFSQNSSL [I2D], for which the protein stability index worked out at 2.43. Turning to RTHTGERPYMCKECGKAFSQNSSL [I2T], the protein stability index was 1.74.

On to RGHTGERPYMCKECGKAFSQNSSL [I2G], for which the protein stability index was 2.78. The figure for RIHTGERPYMCKECGKAWSQNSSL [F18W] is 1.99; for RIHTGERPYMCKECGKAVSQNSSL [F18V] it is 2.83; for RIHTGERPYMCKECGKAKSQNSSL [F18K] it is 3.29. In the case of RIHTGERPYMCKECGKAISQNSSL [F18I], the protein stability index is 2.53. As to RIHTGERPYMCKECGKANSQNSSL [F18N], the protein stability index turned out to be 3.83.

Take RIHTGERPYMCKECGKAPSQNSSL [F18P]: the protein stability index turned out to be 3.45. RIHTGERPYMCKECFKAFSQNSSL [G15F]: the protein stability index turned out to be 2.09. Take RIHTGERPYMCKECCKAFSQNSSL [G15C]: the protein stability index was determined as 2.16. As to RIHTGERPYMCKECDKAFSQNSSL [G15D], the protein stability index is 3.25. The same measure for RIHTGERPYCCKECGKAFSQNSSL [M10C]: 3.11; for RIHTGERPYICKECGKAFSQNSSL [M10I]: 2.69.

RIHTGERPEMCKECGKAFSQNSSL [Y9E]: the protein stability index was determined as 3.27. As for RIHTGERPIMCKECGKAFSQNSSL [Y9I], the protein stability index worked out at 2.21.

Regarding RIHTGERPMMCKECGKAFSQNSSL [Y9M], the protein stability index stood at 2.6. In the case of RIHTGERPNMCKECGKAFSQNSSL [Y9N], the protein stability index was 2.7. For RIHTGERPAMCKECGKAFSQNSSL [Y9A], the protein stability index came out at 3.88. In the case of RIHTGERPLMCKECGKAFSQNSSL [Y9L], the protein stability index is 2.43. RIHTGERIYMCKECGKAFSQNSSL [P8I]: the protein stability index was 2.43. For the variant RIHTGERCYMCKECGKAFSQNSSL [P8C], the protein stability index is 2.31. The same measure for RIHTGERGYMCKECGKAFSQNSSL [P8G]: 2.53. Regarding RIHTGERVYMCKECGKAFSQNSSL [P8V], the protein stability index turned out to be 2.67. For the variant RIHTGERPYMCKECGKAFSTNSSL [Q20T], the protein stability index was found to be 2.61. RIHTGERPYMCKEHGKAFSQNSSL [C14H]: the protein stability index was determined as 2.5. The same measure for RIHTGERPYMCKEPGKAFSQNSSL [C14P]: 2.99; for AIHTGERPYMCKECGKAFSQNSSL [R1A]: 2.93. For TIHTGERPYMCKECGKAFSQNSSL [R1T], the protein stability index was 3.22.

On to LIHTGERPYMCKECGKAFSQNSSL [R1L], for which the protein stability index is 2.63. Regarding CIHTGERPYMCKECGKAFSQNSSL [R1C], the protein stability index was found to be 4.88. The figure for GIHTGERPYMCKECGKAFSQNSSL [R1G] is 3.34. In the case of VIHTGERPYMCKECGKAFSQNSSL [R1V], the protein stability index turned out to be 2.88.

For the variant HIHTGERPYMCKECGKAFSQNSSL [R1H], the protein stability index amounted to 3.56. The figure for DIHTGERPYMCKECGKAFSQNSSL [R1D] is 2.71; for RIHTGERPYMWKECGKAFSQNSSL [C11W] it is 1.98; for RIHTGERPYMTKECGKAFSQNSSL [C11T] it is 2.48.

As for RIHTGERPYMFKECGKAFSQNSSL [C11F], the protein stability index stood at 2.36. For RIHTGERPYMLKECGKAFSQNSSL [C11L], the protein stability index is 2.68.
